What was measured:
[1] = biological target: AnPrx6, Prx6 (1-Cys peroxiredoxin) from Anabaena sp. strain PCC 7120 (Anabaena sp. PCC 7120); test: SAXS; 1.6 mg/ml and 4.8 mg/ml protein; mass from Hen Egg White Lysozyme standard and from Porod volume
[2] = biological target: AnPrx6, Prx6 (1-Cys peroxiredoxin) from Anabaena sp. strain PCC 7120 (Anabaena sp. PCC 7120); test: SEC; analytical SEC at 0.1, 1 and 10 mg/ml protein, without or with 20 mM H2O2; BioRad Gel Filtration Standard

A stoichiometry N [1] of 2 and a stoichiometry N [2] of 2 were found for “AnPrx6, Prx6 (1-Cys peroxiredoxin) from Anabaena sp. strain PCC 7120 (enzyme)” in this work.
